The results in this text go back to patent US20080274905A1 (TRUSTEES OF COLUMBIA UNIVERSITY IN THE CITY OF NEW YORK, published 2008).

Data set [1] deals with the molecule itself. The experiment in a line: two-colour quantum dot labeling of Rdh54 complexes on DNA curtains, TIRFM colocalisation (self-association).
Data set [2] concerns the molecule itself. The experiment in a line: cryo-electron microscopy of fluorescent Rad51 (self-association into rings). An excerpt:
The biochemically active form of Rad51 and related recombinases is an extended helical filament bound to DNA (P8, P33). Cyro-electron microscopy was used to determine whether the fluorescently tagged version of Rad51 formed structures consistent with the known forms of the wild-type protein. First, fluorescent Rad51 was mixed with double-stranded, linearized φX174 in the presence of ATP. The reaction mixes were then applied to a carbon-coated grid, flash frozen in liquid ethane, and visualized with cryo-EM (P9). […] In addition, the protein that was not bound to the DNA molecules was present as a ring-like structure, as previously reported (P16). Rad511 and several closely related proteins, are known to form ring-like structures under various reaction conditions and it is thought that these rings contain from 6-8 monomers of protein (P13-P15, P34, P35).

B1: Rdh54 (Rad homolog 54), yeast Snf2-related homologous recombination factor (enzyme, UniProt P38086 1-958, looked up)
chain: MAVISVKPRRREKILQEVKNSSVYQTVFDSGTTQMQIPKYENKPFKPPRRVGSNKYTQLKPTATAVTTAPISKAKVTVNLKRSISAGPTLNLAKKPNNLSSNENTRYFTIMYRKPTTKKHKTWSGDGYATLKASSDKLCFYNEAGKFLGSSMLPSDSDSLFETLFKAGSNEVQLDYELKENAEIRSAKEALSQNMGNPSPPTTSTTETVPSTKNDGGKYQMPLSQLFSLNTVKRFKSVTKQTNEHMTTVPKTSQNSKAKKYYPVFDVNKIDNPIVMNKNAAAEVDVIVDPLLGKFLRPHQREGVKFMYDCLMGLARPTIENPDIDCTTKSLVLENDSDISGCLLADDMGLGKTLMSITLIWTLIRQTPFASKVSCSQSGIPLTGLCKKILVVCPVTLIGNWKREFGKWLNLSRIGVLTLSSRNSPDMDKMAVRNFLKVQRTYQVLIIGYEKLLSVSEELEKNKHLIDMLVCDEGHRLKNGASKILNTLKSLDIRRKLLLTGTPIQNDLNEFFTIIDFINPGILGSFASFKRRFIIPITRARDTANRYNEELLEKGEERSKEMIEITKRFILRRTNAILEKYLPPKTDIILFCKPYSQQILAFKDILQGARLDFGQLTFSSSLGLITLLKKVCNSPGLVGSDPYYKSHIKDTQSQDSYSRSLNSGKLKVLMTLLEGIRKGTKEKVVVVSNYTQTLDIIENLMNMAGMSHCRLDGSIPAKQRDSIVTSFNRNPAIFGFLLSAKSGGVGLNLVGASRLILFDNDWNPSVDLQAMSRIHRDGQKKPCFIYRLVTTGCIDEKILQRQLMKNSLSQKFLGDSEMRNKESSNDDLFNKEDLKDLFSVHTDTKSNTHDLICSCDGLGEEIEYPETNQQQNTVELRKRSTTTWTSALDLQKKMNEAATNDDAKKSQYIRQCLVHYKHIDPARQDELFDEVITDSFTELKDSITFAFVKPGEICLREQ
notes: also called Tid1
Take B1: in data set [1], the binding result is given as “binds”.

B2: fluorescently tagged human Rad51 (A11C Rad51 labeled with Alexa Fluor 555-maleimide) (enzyme, UniProt Q06609 1-339, looked up)
chain: MAMQMQLEANCDTSVEEESFGPQPISRLEQSGINANDVKKLEEAGFHTVEAVAYAPKKELINIKGISEAKADKILAEAAKLVPMGFTTATEFHQRRSEIIQITTGSKELDKLLQGGIETGSITEMFGEFRTGKTQICHTLAVTCQLPIDRGGGEGKAMYIDTEGTFRPERLLAVAERYGLSGSDVLDNVAYARAFNTDHQTQLLYQASAMMVESRYALLIVDSATALYRTDYSGRGELSARQMHLARFLRMLLRLADEFGVAVVITNQVVAQVDGAAMFAADPKKPIGGNIIAHASTTRLYLRKGRGETRISKIYDSPSLPEAEAMFAINADGVGDAKD
modifications: Alexa Fluor 555-maleimide on Cys 11 (A11C)
notes: also called fluorescent Rad51; Alexa Fluor 555-Rad51
Turning to B2, the binding result in data set [2] is reported as “binds”.
